Measured values reported in patent publication US20140120095A1 (Boehringer Ingelheim, published 2014).
Changes are numbered by the printed parent chain.

T1: human DLL1 (human, UniProt O00548 18-545, limits assumed)
T1 construct: also called hDLL1
T1 sequence (looked up): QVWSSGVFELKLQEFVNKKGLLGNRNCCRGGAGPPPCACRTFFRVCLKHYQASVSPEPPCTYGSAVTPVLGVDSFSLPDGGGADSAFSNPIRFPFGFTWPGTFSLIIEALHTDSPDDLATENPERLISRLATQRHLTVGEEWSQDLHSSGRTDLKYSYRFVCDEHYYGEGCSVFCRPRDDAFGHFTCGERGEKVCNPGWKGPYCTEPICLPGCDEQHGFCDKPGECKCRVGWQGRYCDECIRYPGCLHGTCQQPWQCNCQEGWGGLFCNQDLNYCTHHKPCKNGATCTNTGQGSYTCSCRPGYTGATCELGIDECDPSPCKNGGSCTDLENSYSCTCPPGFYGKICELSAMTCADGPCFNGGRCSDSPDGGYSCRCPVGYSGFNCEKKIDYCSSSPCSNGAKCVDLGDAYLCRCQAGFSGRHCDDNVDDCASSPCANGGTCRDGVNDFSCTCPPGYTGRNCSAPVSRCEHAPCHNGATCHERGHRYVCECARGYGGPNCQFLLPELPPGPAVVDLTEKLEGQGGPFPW

B1: DLLBII129B05 (VHH, not shown: small tags and cut ends)
VHH: EVQLVESGGGLVQAGGSLRLSCAASGRTFSSYAMAWYRQAPGKEREYVAAIRWSGGTAYYADSVQGRFTISRDNAKNTVYLQMNSLKPEDTAVYYCANRAPDTRLAPYEYDHWGQGTQVTVSS
B2: DLLBII136C07 (VHH, not shown: small tags and cut ends)
VHH: EVQLVESGGGLVQPGGSLRLSCAASGFTFGSYDMSWVRRSPGKGPEWVSSINSGGGSTYYADYVKGRFTISRDNAKNTLYLQMNSLKPEDTAVYYCAADRYIWARQGEYWGAYEYDYWGQGTQVTVSS
B3: VEGFDLLBII012 (bispecific antibody)
chain: EVQLVESGGGLVQTGDSLRLSCEVSGRTFSSYSMGWFRQAQGKEREFVVAISKGGYKYDSVSLEGRFTISKDNAKNTVYLQINSLKPEDTAVYYCASSRAYGSSRLRLADTYEYWGQGTQVTVSSGGGGSGGGGSGGGGCGGGGSGGGGSGGGGSGGGGSEVQLVESGGGLVQPGGSLRLSCAASGFTFGSYDMSWVRRSPGKGPEWVSSINSGGGSTYYADYVKGRFTISRDNAKNTLYLQMNSLKPEDTAVYYCAADRYIWARQGEYWGAYEYDYWGQGTQVTVSS
modifications: PEGylated at the Cys at position 15 of the 35 Gly-Ser linker
notes: VEGFBII23B04 - 35GS(Cys15) - DLLBII136C07
B4: VEGFDLLBII013 (bispecific antibody)
chain: EVQLVESGGGLVQTGDSLRLSCEVSGRTFSSYSMGWFRQAQGKEREFVVAISKGGYKYDSVSLEGRFTISKDNAKNTVYLQINSLKPEDTAVYYCASSRAYGSSRLRLADTYEYWGQGTQVTVSSGGGGSGGGGSGGGGCGGGGSGGGGSGGGGSGGGGSEVQLVESGGGLVQAGGSLRLSCAASGRTFSSYAMAWYRQAPGKEREYVAAIRWSGGTAYYADSVQGRFTISRDNAKNTVYLQMNSLKPEDTAVYYCANRAPDTRLAPYEYDHWGQGTQVTVSS
modifications: PEGylated at the Cys at position 15 of the 35 Gly-Ser linker
notes: VEGFBII23B04 - 35GS(Cys15) - DLLBII129B05
B5: DLLBII6B11 (VHH)
VHH: EVQLVESEGGLVQAGGSLRLSCAASGSTFSSYAMGWYRQAPGKQRELVAVISNGGITNYPNSVKGRFTISRDNAKNTVYLQMNSLKPEDTAVYYCFYSGSYYYPTDVHEYDYWGQGTQVTVSS
notes: also called DLLBII06B1
B6: DLLBII07A02 (VHH)
VHH: B5 VHH with E8G, S30N, L47W, V50A, I51F, N53T, I56S, P60A, N61D, H108F
B7: DLLBII07B05 (VHH)
VHH: EVQLVESGGGLVQAGGSLRLSCAASGFALDYYAVGWFRQAPGKEREGVSCISSRGGSTFYADSVKGRFTTSRNNAKNTVYLQMNSLKPEDTAVYYCAAHPLQNCCGGSAYASPEAVYEYWGQGTQVTVSS
notes: also called DLLBII7B05
B8: DLLBII08A09 (VHH)
VHH: EVQLVESGGGLVQPGGSLRLSCAASGFTLDYYNIGWFRQAPGKEREWVSCINSSDGSTYYADSVKGRFTISRDNAKNTVYLQMNSLKPEDTAVYYCAAPFAYYSNLCGVNGYDYWGQGTQVTVSS
notes: also called DLLBII8A09
B9: DLLBII05B11 (VHH)
VHH: EVQLVESGGGLVQPGGSLRLSCAISGFTLDLHVIGWLRQAPGKEREWVSCISSSDGSTYYADSVKGRFTISRDNAKNTVYLQMNSLKPEDTAVYYCAAPWDSWYCGIGNDYDYWGQGTQVTVSS
notes: also called DLLBII5B11

Columns and labels:
[1] = molecular target: T2, mouse DLL4, full length, overexpressed on CHO cells (mouse, UniProt Q9JI71 27-686); assay: FMAT, hNotch1-Fc on CHO-mDLL4, -HSA
T2 construct: whole, on cells; also called mDLL4; CHO-mDLL4

[2] = molecular target: T3, human DLL4, full length, overexpressed on cells (human, UniProt Q9NR61 27-685); assay: FMAT, hNotch1-Fc on CHO-hDLL4, -HSA
T3 construct: CHO cells in FMAT, HEK293 cells in the reporter assay; also called hDLL4; CHO-hDLL4

[3] = molecular target: T3, human DLL4, full length, overexpressed …; assay: cell-based or functional assay
[4] = molecular target: T2, mouse DLL4, full length, overexpressed …; assay: FMAT, hNotch1-Fc on CHO-mDLL4, +25 uM HSA
[5] = molecular target: T3, human DLL4, full length, overexpressed …; assay: FMAT, hNotch1-Fc on CHO-hDLL4, +25 uM HSA
[6] = molecular target: T4, recombinant human VEGF165 (human, UniProt P15692-4 27-191, biotinylated in the competition assays); assay: AlphaScreen, hVEGF165/hVEGFR2-Fc competition, -HSA
T4 construct: Bought protein; also called hVEGF165; rhVEGF165

[7] = molecular target: T4, recombinant human VEGF165; assay: AlphaScreen, hVEGF165/hVEGFR1-Fc competition, -HSA
[8] = molecular target: T4, recombinant human VEGF165; assay: AlphaScreen, hVEGF165/hVEGFR2-Fc competition, +5 uM HSA
Description: These 2 competition assays are also performed after preincubation of the VHHs with 5 μM human serum albumin.

[9] = molecular target: VEGF (used to stimulate HUVEC cells) (UniProt P15692-4 27-191, limits assumed); assay: cell-based or functional assay
[10] = molecular target: T5, human DLL4 overexpressed on cells (human, UniProt Q9NR61 27-685); assay: competitive FMAT, hNotch1-Fc on CHO-hDLL4
T5 construct: full length human DLL4 on CHO or HEK293 cells; also called CHO-hDLL4; CHO-hDII4

recombinant human DLL4 [11] = molecular target: T6, recombinant human DLL4 (human, UniProt Q9NR61 25-522); assay: competition ELISA, biot-hDLL4 to coated hNotch1-Fc
T6 construct: also called rhDLL4; hDLL4
Excerpt: Residual binding of biotinylated human DII4 is detected using horseradish peroxidase (HRP) conjugated extravidin (Sigma, St. Louis, Mo., USA) (FIG. 3 A-C). Human DII4 is biotinylated as described above.

recombinant mouse DLL4 = molecular target: T7, recombinant mouse DLL4 (mouse, UniProt Q9JI71 27-532); assay: binding ELISA on coated recombinant mouse DLL4, OD 405 nm
T7 construct: extracellular domain; also called rmDLL4; mDLL4
Description: (§1) In order to determine cross-reactivity to mouse DII4 a binding ELISA is performed. […] Wells are blocked with a casein solution (1% in PBS). VHHs are applied as dilution series and binding is detected using a mouse anti-myc (Roche) and an anti-mouse-AP conjugate (Sigma, St Louis, Mo., USA) (FIG. 7 A-H). As reference, binding to human DII4 is measured.

recombinant human DLL4 [12] = molecular target: T6, recombinant human DLL4; assay: binding ELISA, coated rhDLL4
Description: as §1

recombinant human DLL4 [13] = molecular target: T6, recombinant human DLL4; assay: competition AlphaScreen, biot-hDLL4/hNotch1-Fc
Description: In brief, 1 nM biotinylated human DII4 is captured on streptavidin-coated donor beads (20 μg/mL), while 0.4 nM of the receptor human Notch1 (as a Fc fusion protein) is captured on anti-human Fc VHH-coated acceptor beads (20 μg/mL). Both loaded beads are incubated together with a dilution range of the competing VHH (FIG. 4 A-E).

human Jagged-1 = molecular target: T8, human Jagged-1 (human, UniProt P78504 34-1067, limits assumed); assay: binding ELISA on coated recombinant human Jagged-1, OD 405 nm
T8 construct: also called hJagged-1; hJAG1
Description: (§2) Absence of binding to homologous ligands human DLL1 and human Jagged-1 is assessed via solid phase binding assay (ELISA). In brief, human DLL1 (Alexis, San Diego, Calif., USA) and human Jagged-1 (Alexis, San Diego, Calif., USA) are coated overnight at 4° C. at 1 μg/mL in a 96-well MaxiSorp plate (Nunc, Wiesbaden, Germany). Wells are blocked with a casein solution (1% in PBS). VHHs are applied as dilution series and binding is detected using a mouse anti-myc (Roche) and an anti-mouse-AP conjugate (Sigma, St. Louis, Mo., USA).

recombinant human DLL4 [14] = molecular target: T6, recombinant human DLL4; assay: hDLL4 ELISA screen, periplasmic extract
human DLL1 = molecular target: T1, human DLL1; assay: binding ELISA on coated recombinant human DLL1, OD 405 nm
Description: as §2

T2 sequence (Q9JI71 27-686): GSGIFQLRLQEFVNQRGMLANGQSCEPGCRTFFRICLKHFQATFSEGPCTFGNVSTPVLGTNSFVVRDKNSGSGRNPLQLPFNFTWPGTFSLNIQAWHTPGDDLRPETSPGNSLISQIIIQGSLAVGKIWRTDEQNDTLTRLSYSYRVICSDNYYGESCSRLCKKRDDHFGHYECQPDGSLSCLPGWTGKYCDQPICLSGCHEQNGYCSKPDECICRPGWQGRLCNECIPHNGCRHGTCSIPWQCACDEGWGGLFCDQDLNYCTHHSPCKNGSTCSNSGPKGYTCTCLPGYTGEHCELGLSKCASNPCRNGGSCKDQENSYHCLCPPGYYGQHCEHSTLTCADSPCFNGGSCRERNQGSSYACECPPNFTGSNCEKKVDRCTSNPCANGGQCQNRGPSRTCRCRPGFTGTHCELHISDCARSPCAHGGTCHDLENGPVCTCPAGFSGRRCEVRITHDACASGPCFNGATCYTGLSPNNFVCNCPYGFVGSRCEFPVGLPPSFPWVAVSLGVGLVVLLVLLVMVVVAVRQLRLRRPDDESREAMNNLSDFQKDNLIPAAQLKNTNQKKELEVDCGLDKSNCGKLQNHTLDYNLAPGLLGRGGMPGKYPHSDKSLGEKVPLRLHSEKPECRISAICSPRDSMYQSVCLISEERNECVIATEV
T7 sequence (Q9JI71 27-532): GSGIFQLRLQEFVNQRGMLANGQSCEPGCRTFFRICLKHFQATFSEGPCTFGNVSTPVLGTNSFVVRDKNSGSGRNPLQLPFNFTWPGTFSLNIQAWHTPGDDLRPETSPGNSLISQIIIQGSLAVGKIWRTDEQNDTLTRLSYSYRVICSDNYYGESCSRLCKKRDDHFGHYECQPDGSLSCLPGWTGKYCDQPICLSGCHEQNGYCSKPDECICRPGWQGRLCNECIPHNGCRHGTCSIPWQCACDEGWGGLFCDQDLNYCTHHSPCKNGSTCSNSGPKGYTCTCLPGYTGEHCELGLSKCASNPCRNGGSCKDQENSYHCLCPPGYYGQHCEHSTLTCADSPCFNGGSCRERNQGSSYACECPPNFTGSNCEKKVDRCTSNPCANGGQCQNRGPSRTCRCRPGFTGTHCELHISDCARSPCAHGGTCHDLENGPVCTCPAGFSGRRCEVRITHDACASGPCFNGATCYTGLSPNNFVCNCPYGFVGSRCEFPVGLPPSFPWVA
T4 sequence (P15692 other isoform, or with tags, fused parts or gaps): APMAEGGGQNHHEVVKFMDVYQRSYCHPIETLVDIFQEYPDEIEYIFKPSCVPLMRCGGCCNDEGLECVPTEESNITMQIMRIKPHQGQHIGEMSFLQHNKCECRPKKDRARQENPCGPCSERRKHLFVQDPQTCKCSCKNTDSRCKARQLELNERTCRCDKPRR
Sequence of VEGF (used to stimulate HUVEC cells) (P15692 other isoform, or with tags, fused parts or gaps limits assumed): as the sequence (P15692 other isoform, or with tags, fused parts or gaps) above

| Binder | % inh [1] [%] | IC50 [1] [nM] | % inh [2] [%] | IC50 [2] [nM] | IC50, DLL4 mediated reporter assay, +HSA [3] [nM] | % inh [4] [%] | IC50 [4] [nM] | % inh [5] [%] | IC50 [5] [nM] | binding result (recombinant mouse DLL4) | EC50 (recombinant human DLL4 [12]) [nM] | IC50 (recombinant human DLL4 [13]) [nM] | binding result (human Jagged-1) | % inh (recombinant human DLL4 [14]) [%] | binding result (human DLL1) | other results |
| --- | --- | --- | --- | --- | --- | --- | --- | --- | --- | --- | --- | --- | --- | --- | --- | --- |
| B1 | 100 | 3 | 90 | 3.2 | 88 | 100 | 3.7 | 90 | 4.3 | – | – | – | – | – | – | – |
| B2 | 100 | 16.4 | 94 | 6.8 | 103 | 100 | 17.6 | 94 | 7.1 | – | – | – | – | – | – | – |
| B3 | 100 | 95.3 | 100 | 44.9 | 582 | 100 | 103 | 100 | 41.5 | – | – | – | – | – | – | % inh [6]: 100%; IC50 [6]: 0.19 nM; % inh [7]: 60%; IC50 [7]: 0.27 nM; % inh [8]: 100%; IC50 [8]: 0.22 nM |
| B4 | 100 | 19.3 | 100 | 12.2 | 98.5 | 100 | 23.8 | 100 | 12.4 | – | – | – | – | – | – | % inh [6]: 100%; IC50 [6]: 0.18 nM; % inh [7]: 62%; IC50 [7]: 0.24 nM; % inh [8]: 100%; IC50 [8]: 0.17 nM; % inhibition, VEGF HUVEC proliferation assay, -HSA [9]: 92%; IC50, VEGF HUVEC proliferation assay, -HSA [9]: 0.73 nM |
| B5 | – | – | – | – | – | – | – | – | – | no binding (tested: 2.5e-7 M) | 1.4 | 0.3 | no binding (tested: 2.5e-7 M) | 98 | no binding (tested: 2.5e-7 M) | IC50 [10]: 8.9 nM; IC50 (recombinant human DLL4 [11]): 1.5 nM |
| B6 | – | – | – | – | – | – | – | – | – | no binding (tested: 2.5e-7 M) | 1.4 | 0.4 | no binding (tested: 2.5e-7 M) | – | no binding (tested: 2.5e-7 M) | – |
| B7 | – | – | – | – | – | – | – | – | – | no binding (tested: 2.5e-7 M) | 7.2 | 1.1 | no binding (tested: 2.5e-7 M) | 84 | no binding (tested: 2.5e-7 M) | – |
| B8 | – | – | – | – | – | – | – | – | – | no binding (tested: 2.5e-7 M) | 0.9 | 0.4 | no binding (tested: 2.5e-7 M) | 96 | no binding (tested: 2.5e-7 M) | IC50 [10]: 5.5 nM |
| B9 | – | – | – | – | – | – | – | – | – | no binding (tested: 2.5e-7 M) | 1.8 | 0.7 | no binding (tested: 2.5e-7 M) | 98 | no binding (tested: 2.5e-7 M) | – |
